Consider 2 substances from publication PMC9888200.

Assay [1] deals with Biotinylated MPER peptide (HIV-1). Nature of the assay: BLI; biotinylated MPER peptide (30 nM) loaded on streptavidin biosensors to 0.6 nm, Octet RED96; Fabs at 50 and 100 nM; 0.5% BSA in PBS with 0.05% Tween 20; association 5 min, dissociation 10 min; values of the two concentrations averaged.
In assay [2] the target is recombinant FcγRI (UniProt P12314). The assay is described as follows: ELISA. Conditions: highest mAb concentration, about 200 nM (est. from x axis); parent: est. 0.73; read off a plot. (In an ELISA, binding on a coated surface is turned into a signal by an enzyme label.)
Sequence of UniProt P12314 (P12314 16-292): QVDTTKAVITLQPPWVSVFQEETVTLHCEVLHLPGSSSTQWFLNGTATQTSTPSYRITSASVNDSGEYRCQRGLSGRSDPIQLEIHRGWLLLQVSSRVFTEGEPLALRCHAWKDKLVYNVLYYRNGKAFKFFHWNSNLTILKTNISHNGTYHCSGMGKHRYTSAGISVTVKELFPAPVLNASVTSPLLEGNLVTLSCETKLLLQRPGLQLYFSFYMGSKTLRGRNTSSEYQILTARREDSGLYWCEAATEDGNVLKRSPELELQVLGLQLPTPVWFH

As a reminder, the Kd is the equilibrium constant for the complex coming apart. Usually koff stands for the first-order rate constant of dissociation. In assay [1], 10E8 Fab displayed a Kd of 3.8 nM and a koff of 0.0016 s⁻¹.
Consider “10E8v4 WT antibody (IgG) L234A; L235A; P329G”, for which the response (Absorbance at 450nm) in assay [2] came to 0.05.
